Molecular target: Mouse CTLA4-Fc protein (mouse)
Test: ELISA, control VHH coated 0.5 µg/well, mouse CTLA4-Fc (biotinylated), SA-HRP; blank 0.027

Sequence of Mouse CTLA4-Fc protein (mouse) (chain, as listed by the source limits assumed): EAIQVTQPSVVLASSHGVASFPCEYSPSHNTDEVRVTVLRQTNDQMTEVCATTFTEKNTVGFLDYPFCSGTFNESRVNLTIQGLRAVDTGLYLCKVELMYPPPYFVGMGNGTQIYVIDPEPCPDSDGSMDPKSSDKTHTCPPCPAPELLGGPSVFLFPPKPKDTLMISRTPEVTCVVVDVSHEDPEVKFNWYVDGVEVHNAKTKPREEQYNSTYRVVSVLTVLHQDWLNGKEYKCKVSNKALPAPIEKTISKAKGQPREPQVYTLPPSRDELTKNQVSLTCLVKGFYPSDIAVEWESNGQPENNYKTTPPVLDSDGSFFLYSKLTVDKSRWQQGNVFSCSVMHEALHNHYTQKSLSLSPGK

OD (against mouse CTLA4): 0.026 OD405
Substance: single domain antibody against other unrelated target (control) (VHH)

— US20190315864A1
